Data published in article doi:10.1101/2024.07.10.602929.

Key:
Assay in all cases: biolayer interferometry, immobilised biotin-peptide
[1] = target: GABARAP (UniProt O95166); settings: reference: unphosphorylated LIR1 peptide
[2] = target: GABARAPL2 (UniProt P60520); settings: reference: unphosphorylated LIR1 peptide; sites Y1092
[3] = target: LC3B (UniProt Q9GZQ8); settings: reference: unphosphorylated LIR1 peptide; sites Y1092
[4] = target: LC3A (UniProt Q9H492); settings: reference: unphosphorylated LIR1 peptide; sites Y1092
[5] = target: GABARAPL1 (UniProt Q9H0R8); settings: reference: unphosphorylated LIR1 peptide; sites Y1092

Substance: EGFR LIR1, 1076-1099 (from UniProt P00533) pY1092 LIR1 peptide
- binding against the reference ([1]; sites Y1092): same
- binding against the reference [2]: same
- binding against the reference [3]: same
- binding against the reference [4]: same
- binding against the reference [5]: same

Substance: EGFR LIR1, 1076-1099 (from UniProt P00533) pS1081 LIR1 peptide
- fold change ([1]; sites S1081): stronger

Substance: EGFR LIR1, 1076-1099 (from UniProt P00533) pS1081/pT1085 LIR1 peptide
- fold change ([1]; sites S1081,T1085): stronger

Substance: EGFR LIR1, 1076-1099 (from UniProt P00533) pT1085 LIR1 peptide
- fold change ([1]; sites T1085): stronger
